# T1: ErbB3-mFc (human)
# T1 construct: Dimeric soluble ErbB3; also called hErbB3.mFc
# T1 chain: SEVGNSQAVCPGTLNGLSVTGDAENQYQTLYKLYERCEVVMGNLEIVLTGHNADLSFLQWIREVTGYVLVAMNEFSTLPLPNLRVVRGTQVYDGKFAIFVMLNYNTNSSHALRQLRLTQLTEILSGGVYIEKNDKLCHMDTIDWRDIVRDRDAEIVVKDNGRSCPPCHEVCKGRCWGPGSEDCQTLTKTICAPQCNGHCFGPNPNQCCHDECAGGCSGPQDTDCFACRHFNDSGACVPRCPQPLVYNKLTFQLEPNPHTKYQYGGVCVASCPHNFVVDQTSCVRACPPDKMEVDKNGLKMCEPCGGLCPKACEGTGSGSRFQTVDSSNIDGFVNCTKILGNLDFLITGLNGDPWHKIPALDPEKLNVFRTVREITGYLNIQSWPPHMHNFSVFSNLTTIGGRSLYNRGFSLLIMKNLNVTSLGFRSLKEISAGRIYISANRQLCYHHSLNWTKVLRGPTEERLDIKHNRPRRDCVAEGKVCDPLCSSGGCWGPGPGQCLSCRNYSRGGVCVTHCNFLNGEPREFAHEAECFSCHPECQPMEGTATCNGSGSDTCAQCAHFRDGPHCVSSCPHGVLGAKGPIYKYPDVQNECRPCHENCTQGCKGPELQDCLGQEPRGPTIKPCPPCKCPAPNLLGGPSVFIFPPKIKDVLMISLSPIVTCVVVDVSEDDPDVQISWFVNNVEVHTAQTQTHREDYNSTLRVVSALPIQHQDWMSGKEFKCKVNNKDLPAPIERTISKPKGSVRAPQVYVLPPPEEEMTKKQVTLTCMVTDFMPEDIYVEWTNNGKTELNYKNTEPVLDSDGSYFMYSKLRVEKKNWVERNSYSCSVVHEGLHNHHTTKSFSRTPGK
# T2: hErbB3.mFc (soluble dimeric human ErbB3 extracellular domain fused to mouse Fc) (human)
# T2 construct: called dimeric
# T2 chain: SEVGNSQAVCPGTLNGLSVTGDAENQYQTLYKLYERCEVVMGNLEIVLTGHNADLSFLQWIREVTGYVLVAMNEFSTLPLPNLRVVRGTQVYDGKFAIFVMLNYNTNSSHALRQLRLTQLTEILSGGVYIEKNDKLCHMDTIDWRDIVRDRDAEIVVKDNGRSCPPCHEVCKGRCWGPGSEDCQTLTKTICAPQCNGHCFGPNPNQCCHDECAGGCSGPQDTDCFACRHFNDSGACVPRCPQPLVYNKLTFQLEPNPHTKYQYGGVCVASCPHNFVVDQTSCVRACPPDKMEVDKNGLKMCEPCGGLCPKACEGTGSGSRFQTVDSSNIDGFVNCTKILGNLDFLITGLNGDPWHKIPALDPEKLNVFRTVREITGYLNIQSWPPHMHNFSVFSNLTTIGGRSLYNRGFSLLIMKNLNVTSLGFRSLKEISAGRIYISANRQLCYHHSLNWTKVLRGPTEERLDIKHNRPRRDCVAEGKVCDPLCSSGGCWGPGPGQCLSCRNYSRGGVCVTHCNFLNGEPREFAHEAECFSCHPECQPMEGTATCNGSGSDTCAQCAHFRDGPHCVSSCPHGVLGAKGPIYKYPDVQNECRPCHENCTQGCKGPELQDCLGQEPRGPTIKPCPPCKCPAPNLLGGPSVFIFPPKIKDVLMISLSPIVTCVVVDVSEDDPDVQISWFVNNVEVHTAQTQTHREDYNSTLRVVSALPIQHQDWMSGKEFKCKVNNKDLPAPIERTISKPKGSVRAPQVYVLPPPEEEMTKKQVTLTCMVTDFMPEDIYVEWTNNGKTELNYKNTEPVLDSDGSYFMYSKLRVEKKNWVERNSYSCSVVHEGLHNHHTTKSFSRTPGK
# Tests used:
# ErbB3-mFc = target: T1, ErbB3-mFc; assay: blocking ELISA: antibody (0-50 nM) + 50 pM ErbB3-mFc, binding to coated neuregulin1b
# Source text: To further characterize anti-hErbB3 mAbs of the present invention, their ability to block ligand binding was examined via ELISA. […] Plates were washed and non-sequestered (plate bound) ErbB3 was detected with an anti-Fc poly conjugated with horseradish peroxidase (HRP). Plates were developed with TMB (3,3′,5,5′-tetramethylbenzidine) and neutralized with sulfuric acid before reading absorbance at 450 nm on a Victor X5 plate reader. Data analysis used a sigmoidal dose-response model within Prism™ software. […] Maximal blocking for each antibody was calculated by taking the difference in absorbance from zero to 50 nM antibody on the inhibition curve, divided by the difference in absorbance from 50 pM to zero ErbB3 on the dose curve.
# [1] = target: hErbB3.mmh (soluble monomeric human ErbB3 extracellular domain with C-terminal myc-myc-hexahistidine tag) (human, UniProt P21860 20-642); assay: SPR (Biacore), 25 C, mAb capture format
# Procedure: (§1) (Tables 2-4). Measurements were conducted on a Biacore 2000 or T100 instrument. […] Kinetic association (kₐ) and dissociation (kd) rate constants were determined by processing and fitting the data to a 1:1 binding model using Scrubber 2.0 curve fitting software.
# [2] = target: T2, hErbB3.mFc (soluble dimeric human ErbB3 …); assay: SPR (Biacore), 25 C, mAb capture format
# Procedure: as §1
Binder,IC50 (ErbB3-mFc) [nM],Maximal Blocking (%) (ErbB3-mFc),Kd [1] [nM],T½ [1] [h],koff [1] [s⁻¹],kon [1] [M⁻¹ s⁻¹],Kd [2] [nM],T½ [2] [h],koff [2] [s⁻¹],kon [2] [M⁻¹ s⁻¹]
"H4H1821N (antibody, human IgG4, V domains shown, Human IgG4 Fc (prefix H4H); In the H/D exchange experiment it was covalently attached to NHS agarose beads) VH: EVQLVESGGGLVQPGRSLRLSCAASGFTFDDYAMHWVRQAPGKGLEWVSSISWNSGSIGYADSVKGRFTISRDNAKNSLYLQMNSLKPEDTALYYCTKDTDYGDYLDAFDIWGQGTMVAVAS VL: not shown",0.018,99,–,–,–,–,–,–,–,–
"H4H2092P (antibody, human IgG4, V domains shown, Human IgG4 Fc (prefix H4H)) VH: EVQLVESGGGVVRPGGSLRLSCAASGFTFEDYGMNWVRQVPGKGLEWVSGTNWNGGITGYTGSVKGRFTISRDNAKNSLYLQMNSLRAEDTALYHCARDSGDQDAFDIWGQGTMVTVSS VL: DIQLTQSPSFLSASVGDRVTITCWASQDISSYLAWYQQKPGKAPKLLIYAASTFQSGVPSRFSGSGSGTEFTLTISNLQPEDFATYYCQQLDSYPLSFGGGTKVEIKR",0.0594,100,–,–,–,–,–,–,–,–
"H4H2102P (antibody, human IgG4, V domains shown, Human IgG4 Fc (prefix H4H)) VH: EVQLVESGGGLVQPGGSLRLSCAASGFTFSNYDIHWVRQATGKGLEWVSAIGPAGDTYYSDSVKGRFTISREDAKNSLYLQMSSLRAGDTAVYYCASEGIAVRPDDYYGMDVWGQGTTVTVSA VL: DIQLTQSPSFLSASVGDRVTITCWASQDITSYLAWYQKKPGKAPKLLIYAASTLQSGVPSRFSGSGSGTEFTLTISSLQPEDFAAYYCQQLNSYPLTFGGGTKVDIKR",0.186,90,–,–,–,–,–,–,–,–
"H4H2094P (antibody, human IgG4, V domains shown, Human IgG4 Fc (prefix H4H)) VH: EVQLVESGGGLVQPGGSLRLSCAASGFTFSSYDMHWVRQATGKGLEWVSAIGPAGDTYYPVSAMGRFTISRDDAKNSLYLQMNSLRAGDTAVYYCAREGVTIRPDDYFGLDVWGQGTTVTVSA VL: DIQLTQSPSFLSASVGDRVTITCWASQGISDYLAWYQKKPGKAPQLLIYAATTLQSGVPSRFSGSGSGTEFTLTISSLQPEDFATYYCQQLNTYPLTFGGGTKVEIKR",0.09,92,–,–,–,–,–,–,–,–
"H4H2111P (antibody, human IgG4, V domains shown, Human IgG4 Fc (prefix H4H)) VH: QVQLVESGGGVVQPGRSLRLSCAASGFTFNNYGMHWVRQAPGKGLAWVAVMWYSESHKYYADSVKGRFTISRDNSKNTLYLEMNSLRVEDTAIYYCARDLGDPDAFDIWGQGTMVTVSS VL: DIQLTQSPSFLSASVGDRVTITCWASQGISSYLAWYQQKPGKAPKLLIYGASTLQSGVPSRFSGSGSGTEFTLTISSLQPEDFATYYCQQLNSYPLTFGGGTKVEIKR",0.0497,92,–,–,–,–,–,–,–,–
"H4H2290P (antibody, V domains shown, Fully human, human IgG4 Fc (H4H prefix)) VH: EVQLLESGGGLVQPGGSLRLSCVASGFTFSSFAMSWVRQAPGKGLEWVSVISGSGGSTNHADSVRGRFTISRDNSLNTVYLQMHSLRAEDTALYYCVKAETSSSYFYYGMDVWGQGTTVTVSS VL: DIQLTQSPSFLSASVGDRVTITCWASQDISSYLAWYQQKPGKVPNLLIYGASSLQPGVPSRFSGSGSGTEFTLTISSLQPEDFATYYCQQLNNYPTFGGGTKLEIKR",–,–,0.115,2.65,6.72e-05,582000,0.014,15.8,1.13e-05,800000
"H4H2108P (antibody, human IgG4, V domains shown, Human IgG4 Fc (prefix H4H)) VH: EVQLLESGGDLVQPGGSLRLSCATSGFSFSSDAMNWVRQAPGKGLEWVSGISGSGGNTYYADSVKGRFTISRDISKSTLSLQMNSLRAEDTAVYYCAKEGTNMVRGVVMEDNGMDVWGQGTTVTVSA VL: DIQMTQSPSSVSASVGDRVTITCRASQGISDYLAWYQQKPGKAPKLLIYAASSLQSGVPSRFSGRGSGTDFTLTISTLQPEDFATYYCQQANSFPLTFGGGTKVDIKR",0.116,91,–,–,–,–,–,–,–,–
"H4H1819N (antibody, human IgG4, V domains shown, Human IgG4 Fc (prefix H4H)) VH: EVQLVESGGGVVRPGGSLRLSCAASGFTFDDYAMHWVRQAPGKGLEWVAGISWNSGSIDYADSVKGRFTISRDNAKNSLYLQMNSLRAGDTALYYCAKDILDLDYYGLDVWGQGTTVTVSS VL: DIQMTQSPSSLSASVGDRVTITCRASQDISSYLAWYQQKPGKVPNLLIYDASSLQSGVPSRFSGSGSGTDFTLTLSSLQPEDFASYYCQNYNSAPYTFGQGTKLEIK",0.02,99,–,–,–,–,–,–,–,–
"H4H2151P (antibody, V domains shown, Fully human, human IgG4 Fc (H4H prefix)) VH: QVQLVESGGGVVQPGRSLRLSCAASGFTFSNYGMHWVRQAPGKGLEWVARIWYDGSNKYYADSVKGRFTISRDSSKNTLYLQMNSLRAEDTAVYYCAREGEQNLDYYPLDVWGQGTTVTVSS VL: DIVMTQSPSSLSASVGDRVTITCRASQDIRNDLGWYQQKPGKAPKLLIYAASSLQTGVPSRFSGSVSGTDFTLTISSLQPEDFATYYCLQDYTYPLTFGGGTKVEIK",–,–,0.00942,6.2,2.86e-05,3.04e+06,0.000213,186,9.52e-07,4.48e+06
"H4H2148P (antibody, V domains shown, Fully human, human IgG4 Fc (H4H prefix)) VH: EVQLVESGGGLVHPGRSLRLSCAASGFTFDDYAMHWVRQSPGKGLEWVSGISWNSVIKHSTDSVRGRFTISRDNAKNSLYLQMNSLKPEDTAFYYCAKDEDDWNYLDYWGQGTLVTVSS VL: DIQMTQSPSSVSASVGDRVTITCRASQDINSWLAWYQQKPGKAPKLLIYTSSNLQSGVPSRFSGSGSGTDFTLTISSLQPEDFATYYCQQSDSFPFTFGPGTKVDIKR",–,–,0.00871,5.12,3.47e-05,3.98e+06,0.000295,102,1.74e-06,5.91e+06
"H4H2154P (antibody, V domains shown, Fully human, human IgG4 Fc (H4H prefix)) VH: QVQLQESGPGLINPSQTLSVTCTVSGGSISSGGYYWTWIRQHPGKGLEWIGYISYSGNTNYNPSLKSRVTISVDTAKNQFSLKLSSVTAADTAVYFCARDSDVDTAMVDGIDIWGQGTMVTVSS VL: DIQMTQSPSSVSASVGDRVTITCRASQDISSWLAWYQQKPGRAPKLLIYTASSLQSGVPSRFSGSGSGTDFTLTISSLQPEDFATYFCQQANSFPFTFGPGTKVDIKR",–,–,0.0176,4.75,3.73e-05,2.13e+06,0.0003,182,9.77e-07,3.25e+06
"H4H2084P (antibody, human IgG4, V domains shown, Human IgG4 Fc (prefix H4H)) VH: QVQLVESGGGVVQSGKSLRLSCVASGFTFSNYGMHWVRQTPGKGLEWVARIWFDGTNKYYTDSVKGRFTLSRDSSKNTLYLQMNSLRAEDTAVYFCAREESLELDHYVMDVWGQGTTVTVSS VL: AIQMTQSPSSLSASVGDRVTITCRASQDIRDDLGWFQQKPGKAPNLLIYAASSLQSGVPSRFSGSGSGTDFTLTISSLQPEDFATYYCLQDYNYPLTFGGGTKVEIKR",0.0873,95,–,–,–,–,–,–,–,–
"H4H2114P (antibody, human IgG4, V domains shown, Human IgG4 Fc (prefix H4H)) VH: QVQLVESGGGVVQPGRSLRLSCAASGFTFSSYGMHWVRQAPGKGLEWVAGMSYDGSSKYYEDSVKGRFTISRDNSKNTLNLQMNSLRVEDTAVYYCAKERDYVEYVDSYYGMDVWGQGTTVTVSA VL: AIQMTQSPSSLSASVGDRVTITCRASQGIRNDLGWYQQKPGKAPKVLIYAASSLQSGVPSRFSGSGSGTVFTLTISSLQPEDFATYYCLQDYNYPLTFGGGTKVEIKR",0.163,91,–,–,–,–,–,–,–,–
"H4H2153P (antibody, V domains shown, Fully human, human IgG4 Fc (H4H prefix)) VH: QVQLVQSGAEVKKPGASVKVSCKASGYTFTRYGISWVRQAPGLGLEWMGWISAYDGYTNFAQKFQGRFTMTTDTSTNTAYMELRGLRSDDTAVYYCAREEEDAAFDIWGQGTMVTVSS VL: not shown",–,–,0.0117,5.18,3.43e-05,2.94e+06,0.000337,143,1.24e-06,3.67e+06
"H4H2098P (antibody, human IgG4, V domains shown, Human IgG4 Fc (prefix H4H)) VH: QVQLVESGGGVVQPGRSLRLSCAASGFTFSSFGMHWVRQAPGKGLEWVAVIWYVEINKYHADSVKGRFTISRDDSKNTVYLQMNSLRAEDTAVYYCARDWNDGDYGMDVWGQGTTVTVSS VL: DIQLTQSPSFLSASVGDRVTITCWASQGISSFLAWYQQKAGKAPRLLIYAASTLQTGVPSRFSGSGSGTEFTLTISSLQPGDFATYHCQQLNSYPYTFGQGTKLEIKR",0.135,95,–,–,–,–,–,–,–,–
